Assay results from article doi:10.1101/2022.05.18.492506, “A multi-domain connector links the outer membrane and cell wall in deep-branching bacteria” (bioRxiv, 2022).

B1: SlpA (Deinococcus radiodurans outer membrane protein) (natural protein, UniProt Q9RRB6 23-1167, looked up)
chain: APVSAPQVPALTDVPAGHWAKDAIDRLVSRGVILGYPDGTFRGTQNLTRYEAAIIIARLLDQMRDGETPAGMTAEDMTALQNAIQELAADLAALGVRVSDLEANAVSKDDFARLEARIEEVAAAGGEQGATEALQGQIDDLTARVDEYDALRADVDDNASSIAALNDLTVLLNQDILDLQDRVSAVEAAQADFVQRSDFDALGGRVTTVETRVETVNNSLTGRIAALERNAFSVKPSLTIGYSVSRTSRNFDVDRLFPLNADGTVANNAFTSGGIDTDTGAQRRDFGDFGNASDPVVAGAAGLYGFADGVSYTVYFTDGSTATFDGLNPADYKVPTGKVIDTTKGRNGFGFNNLARYKEGSTDIGISLGFDTSGQFSQVTSGTGGSLFSTAGRLQVNQIDLNFGLVTGLPSDAYVDTNGNGKKDDGEATGRGTYLGSGGTAAILRDPAGNVYRPVFFRFKNATTQFSVGNNPVIVTLGQQQKFYFSDYVFDNNYDGRGDGFTVTVDGSNVPVIGAWKPQIKGVYGSRSGLDGTAEAGYGVYYRGVRAQITPVGTLTAGIHYAQEGRDMFGAAQNTTSTPSDVTTYGADLHGKAFGVELHSEYATSRVRPNTANAAVQTSNAFYARVATRKDNLAFDLNTPAAKFGNDTFGVSLYDLNYRKIDAGYNNVAGISEYGYGSYSRTSAQNIAYNPDTGVTAPFANLDRQAYTDANNDGTSDRNADGTVVATNTKIGQMGFGVKAAANLGPVAIGGYYDTSTGANGDNANRMTEAGGSAKVAYSIFSLRGTYNTLDSNRPQIYRDAAGTQIIGDAKVRRYAVQADVTPGLGLFVGAYYRDVNVNGVRSTTDRGLLGRGYLASSFEPGVGNNAYRTGLRCADNNFGTGTRDIDGVGGVLNPAVNLDQSRTATCFTSYGVEAGHAGDNANALVKDLFFRVGYSRVYVPTTATATTGDFSGSVTYGDARYDRKVGVANVRLAGSFSTTNTQLDSRPAGTRGAVGLIVRTDPLENVPFRPQFNGQVGYYTADNRVAAGNYNANATKYGAGVVLNDFLLPQTKIGVRYDGYMAQNRQYTPFDGDGTQGYFSDANNNRRTNLNGVYVEGAYQDLIFSYGTYTLSQKDLNGVEYGSGINNGQPARGQTFKISYKVNF
notes: SlpA, Deinococcus radiodurans, UniProtKB Q9RRB6; Native protein from the source organism, no tags; Only residues 215-1167 are well resolved in the cryo-EM map; also called SlpA protein complex; SlpA porin; source: purified from D. radiodurans (ATCC BAA816): DDM extraction, HiTrap-Q, Superose 6 Increase

Tests used:
[1] = target: the molecule itself; test: cryo-EM structure; single-particle analysis of SlpA purified from D. radiodurans in detergent (20 mM HEPES/NaOH pH 7.5, 150 mM NaCl, 0.02 % DDM; 4.45 mg/mL); C3 symmetry; global resolution 3.25 Å
[2] = target: B1; test: as above; settings: both partners purified

Binder: B1
- stoichiometry N [1]: 3

B2: uncharacterized protein DR_0644 (natural protein, Deinococcus radiodurans, UniProt Q9RWM2 20-206, looked up)
chain: GPTEGTYTLAPQAVVKPAGPVYAPAGTAKISETLGVTRTTITLTGMAPYAIYVAHYHKMGTAAPMGSAPATNTNMAMSSTDATATTTASTSTTSTDTTVAASTDMTTTVTMAPVTAAPNPCNSDGPAIMESRMIAQASADGKVTLTGIVPTALIRDAAYINVHHGRDFSGALADSGVICTPITMTMR
notes: uncharacterized protein DR_0644, Deinococcus radiodurans; the mature protein, fitted from the mature N-terminus Gly20 to the C-terminus Arg206, with an unstructured loop 82-133; Identified from the map density combined with structural modelling (rigid-body fit of an AlphaFold2 model); also called accessory protein; additional protein density; source: endogenous, D. radiodurans; present with the …
- stoichiometry N [1]: 3
- binding result [2]: binds
